The text below walks through data of patent publication US20190292229A1 (COMMISSARIAT A L ENERGIE ATOMIQUE ET AUX ENERGIES …, published 2019).

This experiment has as its target T1, N1-525 with an Histidine tag (full length measles virus nucleoprotein, Edmonston strain) (measles virus (Edmonston strain), UniProt P0DXN6 1-525).
T1 construct: also called full length N
T1 sequence: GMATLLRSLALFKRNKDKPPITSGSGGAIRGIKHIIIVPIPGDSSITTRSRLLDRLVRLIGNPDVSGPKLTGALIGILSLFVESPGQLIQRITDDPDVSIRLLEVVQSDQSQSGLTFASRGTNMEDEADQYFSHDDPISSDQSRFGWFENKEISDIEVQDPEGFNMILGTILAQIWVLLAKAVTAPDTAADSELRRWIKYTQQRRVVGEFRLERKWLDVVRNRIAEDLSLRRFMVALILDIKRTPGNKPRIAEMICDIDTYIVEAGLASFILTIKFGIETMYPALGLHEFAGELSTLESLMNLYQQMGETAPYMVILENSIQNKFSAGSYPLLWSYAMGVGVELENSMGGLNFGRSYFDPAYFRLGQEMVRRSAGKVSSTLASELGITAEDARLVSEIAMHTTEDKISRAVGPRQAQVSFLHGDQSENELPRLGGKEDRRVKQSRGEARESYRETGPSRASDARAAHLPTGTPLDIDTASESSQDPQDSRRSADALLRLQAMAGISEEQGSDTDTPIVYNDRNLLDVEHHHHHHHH
The experiment in a line: co-expression, TEV cleavage, SAXS and SEC-MALLS.

B1: P1-50 with a TEV peptide amino acid sequence (first 50 amino acids of measles virus phosphoprotein, Edmonston strain, after TEV cleavage) (peptide)
peptide: MAEEQARHVKNGLECIRALKAEPIGSLAIEEAMAAWSEISDNPGQERATCENLYFQN
notes: Produced as a P1-50-TEV site-N fusion in E. coli and cleaved with TEV; also called P1-50 peptide; minimal P peptide
In the case of B1, the binding result is recorded as “binds”.
